Results from patent US10233437B2, “Hypochlorite resistant cyanuric acid hydrolases and methods of use thereof” (REGENTS OF THE UNIVERSITY OF MINNESOTA, priority 2015, dated 2019).

Legend:
[1] = Bleach sensitivity of CAH; type: biochemical; conditions: 30 μM protein pre-incubated with 1 mM bleach
Method: (§1) To determine bleach sensitivity of WT, C46A and C46S CAH, purified protein (30 μM) was pre-incubated with or without 1 mM bleach. At appropriate time points, aliquots of the protein samples were diluted 100 fold into a solution of 140 ppm cyanuric acid and incubated for 10 minutes before the cyanuric acid concentration was measured with the melamine turbidity assay. The results are plotted as the log of the percent of untreated-protein activity as a function of treatment time.

[2] = Circular dichroism thermal melting; type: physicochemical; conditions: CD at 220 nm, 25 μM protein, 55 to 90° C.
Method: The circular dichroism (CD) measurements were performed on a Jasco J-815 spectrometer with 25 μM protein in 50 mM M Tris-HCl buffer, pH 7.2 in a 1 mm path length cell. For thermal melting, the changes in CD spectra at of the proteins were sampled at 220 nm every 1° C. during continuous heating the solutions from 55 to 90° C. at 1 degree per minute. Data were normalized to the initial reading at 55 C.

[3] = Resistance of CAH to mercury (II) salt; type: biochemical; conditions: 48 uM enzyme, 1.6 mM phenyl mercuric acetate, assayed after one minute
Method: The effect of a common heavy metal, mercury, on the activity of WT and variant CAH was also tested. […] Specifically, mercury (II) salts were used to test resistance, which are known to be particularly damaging to proteins. The WT or C46A enzymes (48 uM) were incubated with 1.6 mM phenyl mercuric acetate; the WT CAH enzyme retained 1% activity (+/−13% error) (so it was 99% inactivated) while the C46A mutant enzyme retained 89% activity (+1-11%) (so it was completely resistant within experimental error) when assayed after one minute.

[4] = Cyanuric acid hydrolase activity (melamine turbidity assay); type: biochemical; conditions: 140 ppm cyanuric acid in phosphate buffered saline; 0.03 μM enzyme (0.12 μM for C46D, V, T)
Method: To determine CAH activity, 0.03 μM enzyme was incubated with a 140 ppm cyanuric acid (CYA) solution in phosphate buffered saline (138 mM NaCl, 3 mM KCl, 10 mM Na2HPO4, 2 mM KH2PO4). For the WT protein and the C46A and C46S variants, fractions were removed every 5 minutes to assay CYA concentration using a modified melamine turbidity assay (Downes et al. 1984). An equal volume of melamine solution (2.5 mg/mL in water) was added to cyanuric acid samples and mixed thoroughly. The absorbance at 600 nm was read 2 minutes after mixing. For the severely impaired CAH proteins (C46D, V and T), 0.12 μM protein was used and fractions were removed every hour for CYA measurement. Specific activity (nmol min^−1 mg^−1) was calculated as the average of triplicate data at two time points.

[5] = Sensitivity of CAH to hydrogen peroxide; type: biochemical; conditions: 30 μM CAH, 8.5 mM H2O2
Method: as §1, with “determine” for “determine bleach”, “C46S CAH to various oxidants or sulfhydryl reagents,” for “C46S CAH,”, “without the potential inhibitor, 8.5” for “without 1”, “mM hydrogen peroxide, 50 μM potassium permanganate, 22 μM (1 ppm) ozone or 20 mM iodoacetamide.” for “mM bleach.”, “turbidity assay (explained in previous document).” for “turbidity assay.”

[6] = Inactivation of CAH by Michael addition; type: biochemical; conditions: 30 uM enzyme, 350 uM N-ethylmaleimide
Method: Inactivation of the WT and variant CAH from a Michael addition reaction was also investigated using N-ethylmaleimide. Specifically, the WT or C46A enzymes (30 uM) were incubated with 350 uM N-ethylmaleimide.

[7] = Sensitivity of CAH to iodoacetamide; type: biochemical; conditions: 30 uM CAH, 20 mM iodoacetamide
Method: In addition to commonly used oxidants, the effect of a commonly used sulfhydryl reactive agent (iodoacetamide) was also tested on the activity of WT and variant CAH. It was reasoned that a sulfhydryl reactive compound might react with the cysteine sulfhydryl group of the wild-type protein to block substrate access to the active site much in the same way an oxidant could oxidize the cysteine sulfhydryl group and block active site access.
as §1, with “determine” for “determine bleach”, “C46S CAH to various oxidants or sulfhydryl reagents,” for “C46S CAH,”, “without the potential inhibitor, 8.5” for “without 1”, “mM hydrogen peroxide, 50 μM potassium permanganate, 22 μM (1 ppm) ozone or 20 mM iodoacetamide.” for “mM bleach.”, “turbidity assay (explained in previous document).” for “turbidity assay.”

Row | Molecule | Resistance to inactivation by bleach [1] | Thermal melting curve compared to WT [2] | Activity retained [3] [%] | Specific activity [4] [µmol/min/mg] | Decrease of sensitivity to hydrogen peroxide versus wild-type [5] | Protection from inactivation by N-ethylmaleimide [6] | Effect of iodoacetamide on activity [7]
1 | C46A: Moorella thermoacetica CAH with cysteine at residue 46 replaced with alanine (protein) MQKVEVFRIPTASPDDISGLATLIDSGKINPAEIVAILGKTEGNGAVNDFTRGFATQSLAMYLAEKLGISREEVVKKVAFIMSGGTEGVMTPHITVFVRKDVQEPAKPGKRLAVGVAFTRDFLPEELGRMEQVNEVARAVKEAMKDAQIDDPRDVHFVQIKCPLLTAERIEDAKRRGKDVVVNDTYKSMAYSRGASALGVALALGEISADKISNEAICHDWNLYSSVASTSAGVELLNDEIIVVGNSTNSASDLVIGHSVMKDAIDADAVRAALKDAGLKFDCCPPAEELAKIVNVLAKAEAASSGTVRGRRNTMLDDSDINHTRSARAVVNAVIASVVGDPMVYVSGGAEHQGPDGGGPIAVIARV | largely resistant to inactivation by bleach | very closely resemble the WT curve | 89 | 10.03 | over four-fold | completely protected | not affected
2 | C46S: Moorella thermoacetica CAH with cysteine at residue 46 replaced with serine (protein) MQKVEVFRIPTASPDDISGLATLIDSGKINPAEIVAILGKTEGNGSVNDFTRGFATQSLAMYLAEKLGISREEVVKKVAFIMSGGTEGVMTPHITVFVRKDVQEPAKPGKRLAVGVAFTRDFLPEELGRMEQVNEVARAVKEAMKDAQIDDPRDVHFVQIKCPLLTAERIEDAKRRGKDVVVNDTYKSMAYSRGASALGVALALGEISADKISNEAICHDWNLYSSVASTSAGVELLNDEIIVVGNSTNSASDLVIGHSVMKDAIDADAVRAALKDAGLKFDCCPPAEELAKIVNVLAKAEAASSGTVRGRRNTMLDDSDINHTRSARAVVNAVIASVVGDPMVYVSGGAEHQGPDGGGPIAVIARV | largely resistant to inactivation by bleach | very closely resemble the WT curve |  | 6.972 | over four-fold |  | 
